Source: publication PMC5491184

Columns and labels:
[1] = target: NHERF3 (endogenous, Caco-2/bbe) (UniProt Q5T2W1); assay: HA-NHE3 IP, LC-MS/MS spectral counts; conditions: reference: NHE3 wild type; sites S719
ezrin = ezrin (UniProt P15311); assay: HA-NHE3 IP, LC-MS/MS spectral counts; conditions: reference: NHE3 wild type; sites S719

other: normalized exclusive spectrum count [1]: weaker; reference 4
other: normalized exclusive spectrum count (ezrin): weaker; reference 8
Substance: NHE3 (from UniProt P26432) NHE3-S719A
